We go through one molecule from PMC1150889 (The EMBO Journal, 2005).

For this assay, the target named is P22 tailspike protein gp9 (bacteriophage P22, UniProt P12528 1-667). The experiment in a line: cryo-EM structure.

B1: P22 tail accessory (head completion) protein gp4 (natural protein, bacteriophage P22, UniProt P26746 1-166, looked up)
chain: MQIKTKGDLVRAALRKLGVASDATLTDVEPQSMQDAVDDLEAMMAEWYQDGKGIITGYVFSDDENPPAEGDDHGLRSSAVSAVFHNLACRIAPDYALEATAKIIATAKYGKELLYKQTAISRAKRAPYPSRMPTGSGNSFANLNEWHYFPGEQNADSTTPHDEGNG
For B1, the binding result is recorded as “binds”.
